Reference: patent US7981423B2, “Rage fusion proteins” (Transtech Pharma, Inc., priority 2004, dated 2011)

What was measured:
S100b (S100) = target: T1, S100b (S100) (Homo sapiens, UniProt P04271); test: In vitro ligand binding ELISA, immobilized S100b; details: various dilutions of fusion protein; FIG. 7
T1 sequence (P04271 1-92): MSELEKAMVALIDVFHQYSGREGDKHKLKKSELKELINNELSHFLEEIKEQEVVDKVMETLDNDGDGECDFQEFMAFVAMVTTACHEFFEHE
Procedure: For example, the RAGE fusion protein may be used in a binding assay to identify potential RAGE ligands. In one example embodiment of such a binding assay, a known RAGE ligand may coated onto a solid substrate (e.g., Maxisorb plates) at a concentration of about 5 micrograms per well, where each well contains a total volume of about 100 microliters (μL). The plates may be incubated at 4° C. overnight to allow the ligand to absorb. Alternatively, shorter incubation periods at higher temperature (e.g., room temperature) may be used. […] The fusion protein bound to the immobilized ligand may be detected in a variety of ways. […] The bound complex may be detected by adding the alkaline phosphatase substrate, para-nitrophenylphosphate (PNPP), and measuring conversion of PNPP to para-nitrophenol (PNP) as an increase in absorbance at 405 nm. […] Binding was detected by the addition of an immunodetection complex containing a monoclonal mouse anti-human IgG1 diluted 1:11,000 to a final assay concentration (FAC) of 21 ng/100 μL, a biotinylated goat anti-mouse IgG diluted 1:500, to a FAC of […], and an avidin-linked alkaline phosphatase. […] Binding of the complex to the immobilized fusion protein was quantified by measuring conversion of PNPP to para-nitrophenol (PNP) which was-measured spectrophotornetrically at 405 nm. […]

amyloid-beta (A-beta) = test: Competition of a RAGE ligand with immobilized amyloid-beta for binding to the fusion protein; details: TTP-4000 initial solution diluted 1:10 or 1:30; RAGE ligand 10 μM FAC
Procedure: The fusion protein of the present invention may also be used to identify compounds having the ability to bind to RAGE.
Known RAGE ligands were coated onto the surface of Maxisorb plates at a concentration of 5 micrograms per well. Plates were incubated at 4° C. overnight. Following ligand incubation, plates were aspirated and a blocking buffer of 1% BSA in 50 mM imidizole buffer (pH 7.2) was added to the plates for 1 hour at room temperature. The plates were then aspirated and/or washed with wash buffer (20 mM Imidizole, 150 mM NaCl, 0.05% Tween-20, 5 mM CaCl2 and 5 mM MgCl2, pH 7.2). […] The fusion protein was added at increasing dilutions of the initial sample. The RAGE fusion protein was allowed to incubate with the immobilized ligand at 37° C. for one hour after which the plate was washed and assayed for binding of the fusion protein. Binding was detected by the addition of an immunodetection complex containing a monoclonal mouse anti-human IgG1 diluted 1:11,000 to a final assay concentration (FAC) of 21 ng/100 μL, a biotinylated goat anti-mouse IgG diluted 1:500, to a FAC of […], and an avidin-linked alkaline phosphatase. The complex was incubated with the immobilized fusion protein for one hour at room temperature after which the plate was washed and the alkaline phosphatase substrate para-nitrophenylphosphate (PNPP) was added. […]

B1: TTP-4000: four domain RAGE fusion protein (SEQ ID NO: 32): human RAGE amino acids 1-251 linked to CH2 and CH3 domains of human IgG (protein)
chain: MAAGTAVGAWALVLSLWGAVVGAQNITARIGEPLVLKCKGAPKKPPQRLEWKLNTGRTEAWKVLSPQGGGPWDSVARVLPNGSLFLPAVGIQDEGIFRCQAMNRNGKETKSNYRVRVYQIPGKPEIVDSASELTAGVPNKVGTCVSEGSYPAGTLSWHLDGKPLVPNEKGVSVKEQTRRHPETGLFTLQSELMVTPARGGDPRPTFSCSFSPGLPRHRALRTAPIQPRVWEPVPLEEVQLVVEPEGGAVAPPSVFLFPPKPKDTLMISRTPEVTCVVVDVSHEDPEVKFNWYVDGVEVHNAKTKPREEQYNSTYRVVSVLTVLHQDWLNGKEYKCKVSNKALPAPIEKTISKAKGQPREPQVYTLPPSRDELTKNQVSLTCLVKGFYPSDIAVEWESNGQPENNYKTTPPVLDSDGSFFLYSKLTVDKSRWQQGNVFSCSVMHEALHNHYTQKSLSLSPGK
- binding to immobilized S100b (absorbance at 405 nm) (S100b (S100)): specifically interact
- inhibition of binding of TTP-4000 to immobilized amyloid-beta by the RAGE ligand (amyloid-beta (A-beta)): completely inhibited
